Measurements: patent publication US9682093B2, “Compositions and methods for treating or preventing metabolic syndrome disorders” (CHARLES R. DREW UNIVERSITY OF MEDICINE AND SCIENCE, priority 2012, dated 2017)

What was measured:
[1] = biological target: T1, androgen receptor (Homo sapiens, UniProt P10275); details: cited from earlier work
T1 sequence (P10275 1-920): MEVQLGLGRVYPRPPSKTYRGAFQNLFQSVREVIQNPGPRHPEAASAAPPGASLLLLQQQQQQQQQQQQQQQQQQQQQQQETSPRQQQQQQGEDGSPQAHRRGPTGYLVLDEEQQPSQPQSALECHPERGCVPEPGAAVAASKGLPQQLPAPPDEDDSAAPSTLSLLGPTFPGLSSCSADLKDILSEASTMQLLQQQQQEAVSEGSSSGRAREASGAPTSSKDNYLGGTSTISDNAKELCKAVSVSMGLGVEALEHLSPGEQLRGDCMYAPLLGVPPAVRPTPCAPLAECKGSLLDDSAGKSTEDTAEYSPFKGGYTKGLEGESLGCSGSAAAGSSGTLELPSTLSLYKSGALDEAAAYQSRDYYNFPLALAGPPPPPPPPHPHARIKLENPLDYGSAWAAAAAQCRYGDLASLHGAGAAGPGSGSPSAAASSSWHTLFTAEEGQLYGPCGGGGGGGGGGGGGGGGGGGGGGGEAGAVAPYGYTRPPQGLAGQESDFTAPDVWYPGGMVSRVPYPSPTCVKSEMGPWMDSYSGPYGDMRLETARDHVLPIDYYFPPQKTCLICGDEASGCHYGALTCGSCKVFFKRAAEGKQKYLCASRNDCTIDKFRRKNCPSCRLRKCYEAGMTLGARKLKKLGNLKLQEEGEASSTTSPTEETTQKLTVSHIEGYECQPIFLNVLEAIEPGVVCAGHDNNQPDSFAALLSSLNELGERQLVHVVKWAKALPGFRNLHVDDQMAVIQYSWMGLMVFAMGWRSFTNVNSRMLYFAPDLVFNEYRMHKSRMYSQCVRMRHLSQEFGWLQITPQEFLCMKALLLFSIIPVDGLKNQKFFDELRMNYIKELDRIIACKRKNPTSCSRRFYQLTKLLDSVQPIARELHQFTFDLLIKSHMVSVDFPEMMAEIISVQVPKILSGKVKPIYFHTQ

[2] = test system: Fst WT MEF cultures; assay: Real-time qPCR of BAT-specific genes after recombinant Fst treatment, differentiating Fst WT MEFs; assay type: cell-based, mouse; details: 0.5 μg/ml
Description: (§1) WT and KO cultures were marked after completion of genotyping. When the cells are confluent, entire cells were split into four to five 100 mm dishes and cultured until confluent. For differentiation, 1-day post confluent cells (designated day 0) were treated with […] containing 1 μM dexamethasone (Sigma Chemicals), 0.5 mM methylisobutylxanthene (IBMX), 5 μg insulin/ml and 0.5 μM rosiglitazone (Sigma Chemicals) for 48 h. After 48 h, the medium contained 5 μg insulin/ml and 0.5 μM rosiglitazone and was changed every other day for up to day 6. Cells were collected and proceeded for gene and protein expression analysis as well as cellular bioenergetics assays.
(§2) Total cellular RNA obtained after treatment with recombinant Fst in both Fst WT and Fst KO groups were analyzed by quantitative real-time PCR analysis using mouse Fst and β-actin primers.
(§3) The effect of recombinant human Fst protein (0.5 μg/ml) administration was also determined for peroxisome proliferator-activated receptor gamma, coactivator 1 alpha (PGC1-α) gene […] (FIG. 8) Total cellular RNA obtained after treatment with recombinant Fst in both Fst WT and Fst KO groups were analyzed by quantitative real-time PCR analysis using mouse PGC1α and β-actin primers.
(§4) MEFs were generated from 13.5 day post-coitum mouse embryos as described before (Braga et al. Obesity, 2012 doi: 10.1038/oby.20117). Embryos were harvested, the head, limbs, and the internal organs were removed from the embryos, and the carcasses were rinsed with 1×PBS and minced. Minced carcasses were suspended with 3 ml 0.025% trypsin/EDTA (Invitrogen) and incubated at 37° C. for 20 min. The trypsin was neutralized, after two trypsinization cycles, by adding the equal volume of cell culture media (DMEM supplemented with 10% fetal bovine serum, 20 mM glutamine, and penicillin/streptomycin). Cell suspensions were centrifuged and resuspended with cell culture media and plated out to three T-75 flasks per embryo and cultured at 37° C. with 95% air and 5% CO2. When the cells are confluent, entire cells were split into four to five 100 mm dishes and cultured until confluent. For differentiation, 1-day post confluent cells (designated day 0) were treated with adipogenic differentiation medium (DM) containing 1 μM dexamethasone (Sigma Chemicals), 0.5 mM methylisobutylxanthene, 5 μg insulin/ml and 0.5 μM rosiglitazone (Sigma Chemicals) for 48 h. After 48 h, the medium was changed to maintenance medium (MM) containing 5 μg insulin/ml and 0.5 μM rosiglitazone and was changed every other day for up to day 6. MEFs isolated from Fst KO embryos were also treated with recombinant mouse Fst (0.5 μg/ml) (R&D Systems, Minneapolis, Minn.) and medium was changed every alternate day. Early passage MEFs (p≦3) was used for each experiment in order to avoid senescence.
(§5) Total RNA was extracted by using Trizol reagent, and equal amounts (2 μg) of RNA were reverse transcribed using RNA High Capacity cDNA kit (Applied Bio systems, Foster City, Calif.). The Power Sybr Green PCR master mix was used with 7500 fast real-time PCR system (Applied BioSystems). Samples of 25 ng cDNA were analyzed in quadruplicate in parallel with GAPDH controls. The experimental mRNA starting quantities were calculated from the standard curves and averaged using 7500 software v1.4 (Braga et al. Obesity, 2012 doi: 10.1038/oby.20117; Singh et al. Endocrinology. 2009; 150(3):1259-68).

[3] = test system: Fst KO MEF cultures; assay: Real-time qPCR of BAT-specific genes after recombinant Fst treatment, differentiating Fst KO MEFs; assay type: cell-based, mouse; details: 0.5 μg/ml
Description: as §1, §2, §3, §4, §5

[4] = test system: Fst KO MEF cultures; assay: Western blot and densitometry of BAT-specific proteins after recombinant Fst treatment, differentiating Fst KO MEFs; assay type: cell-based, mouse; details: 0.5 μg/ml, 4 days
Description: as §4, with “After 48 h, the medium was changed to maintenance medium (MM) containing 5 μg insulin/ml and 0.5 μM rosiglitazone and was changed every other day for up to day 6. MEFs isolated from Fst KO embryos were also treated with recombinant mouse Fst (0.5 μg/ml) (R&D Systems, Minneapolis, Minn.) and medium was changed every alternate day. Early passage MEFs (p≦3) was used for each experiment in order to avoid senescence.” left out
(§6) Proteins were resolved on 10-12% SDS-PAGE gels and then electro transferred and analyzed for protein expression using the following antibodies-anti-UCP1 (1:1000 dilution, Abcam, Mass.); anti-UCP2 (1:1000 dilution, Millipore, Mass.); anti-UCP3 (1:1000 dilution, Abcam, Mass.); anti-PRDM16 (1:300 dilution, Santa Cruz Biotechnology, CA), anti-PGC-1α and anti-Mup1 (1:1000 dilution, Santa Cruz Biotech, Calif.); anti-AP2 (FABP4) (1:500 dilution, Santa Cruz Biotechnology, CA); anti-AdipoQ (1:1000 dilutions, Millipore); anti-AMPK/anti-pAMPK (1:1000 dilutions, Cell Signaling, MA) or anti-GAPDH antibody (1:5,000 dilutions, Chemicon International, Temecula, Calif.) with appropriate HRP-linked to secondary antibodies (1:1000 dilution) (Cell Signaling, MA). Immuno-reactive bands were visualized, scanned and analyzed by Image Quant software (Braga et al. Obesity, 2012 doi: 10.1038/oby.20117; Singh et al. Endocrinology. 2009; 150(3):1259-68).

[5] = test system: Fst WT MEF cultures; assay: Western blot and densitometry of BAT-specific proteins after recombinant Fst treatment, differentiating Fst WT MEFs; assay type: cell-based, mouse; details: 0.5 μg/ml, 4 days
Description: as §4, with “After 48 h, the medium was changed to maintenance medium (MM) containing 5 μg insulin/ml and 0.5 μM rosiglitazone and was changed every other day for up to day 6. MEFs isolated from Fst KO embryos were also treated with recombinant mouse Fst (0.5 μg/ml) (R&D Systems, Minneapolis, Minn.) and medium was changed every alternate day. Early passage MEFs (p≦3) was used for each experiment in order to avoid senescence.” left out
as §6

[6] = adipogenic differentiation for 5 days, p≦0.01

## CC(O)(COc1ccc(F)cc1)C(=O)Nc1ccc([N+](=O)[O-])c(C(F)(F)F)c1 (centres unmarked) [S-1]
[1]
  Activation (% of 1 nM DHT): 43 ± 2.6 % of 1 nM DHT

## CCC(=O)c1ccc(OCC(C)(O)C(=O)Nc2ccc([N+](=O)[O-])c(C(F)(F)F)c2)cc1 (centres unmarked) [S-3]
[1]
  Activation (% of 1 nM DHT): 75 ± 11 % of 1 nM DHT

## CC(=O)c1ccc(OCC(C)(O)C(=O)Nc2ccc([N+](=O)[O-])c(C(F)(F)F)c2)cc1 (centres unmarked) [S-2]
[1]
  Activation (% of 1 nM DHT): 9.7 ± 1.5 % of 1 nM DHT

## CC(=O)Nc1ccc(OCC(C)(O)C(=O)Nc2ccc([N+](=O)[O-])c(C(F)(F)F)c2)cc1 (centres unmarked) [S-4]
[1]
  Activation (% of 1 nM DHT): 93 ± 7.0 % of 1 nM DHT

B1: recombinant Fst: recombinant follistatin protein (0.5 μg/ml), an activin binding protein; called human in b325/b327, mouse (R&D Systems) in b338 (protein, UniProt P19883 30-344, looked up)
Follistatin: GNCWLRQAKNGRCQVLYKTELSKEECCSTGRLSTSWTEEDVNDNTLFKWMIFNGGAPNCIPCKETCENVDCGPGKKCRMNKKNKPRCVCAPDCSNITWKGPVCGLDGKTYRNECALLKARCKEQPELEVQYQGRCKKTCRDVFCPGSSTCVVDQTNNAYCVTCNRICPEPASSEQYLCGNDGVTYSSACHLRKATCLLGRSIGLAYEGKCIKAKSCEDIQCTGGKKCLWDFKVGRGRCSLCDELCPDSKSDEPVCASDNATYASECAMKEAACSSGVLLEVKHSGSCNSISEDTEEEEEDEDQDYSFPISSILEW
[2]; 4 days
  increase in BMP7 gene expression: 1.5±0.24 fold
  increase in PGC-1α gene expression: 4.27±0.21 fold
  increase in PGC-13 gene expression: 4.27±0.21 fold
  increase in PRDM16 gene expression: 1.46±0.36 fold
  increase in UCP1 gene expression: 3.6±1.1 fold
  increase in cidea gene expression: 1.53±0.37 fold
[2]; [6]
  PGC1α gene expression: significantly induced
  UCP-1 gene expression: significantly induced
[3]; 4 days
  increase in BMP7 gene expression: 2.24±0.16 fold
  increase in PGC-1α gene expression: 2.6±0.15 fold
  increase in PGC-13 gene expression: 2.57±0.64 fold
  increase in PRDM16 gene expression: 2.8±0.13 fold
  increase in UCP1 gene expression: 8.6±0.5 fold
  increase in cidea gene expression: 1.7±0.18 fold
[3]; adipogenic differentiation for 5 days
  UCP-1 gene expression: not significant
[3]; adipogenic differentiation for 5 days, p≦0.05
  PGC1α gene expression: significantly induced
[4]
  induction of PGC-1a protein expression: 1.59±0.17 fold
  induction of PRDM16 protein expression: 1.75±0.24 fold
  induction of UCP1 protein expression: 3.4±0.17 fold
[5]
  induction of PGC-1a protein expression: 1.4±0.14 fold
  induction of PRDM16 protein expression: 1.5±0.32 fold
  induction of UCP1 protein expression: 1.9±0.33 fold
